Experimental data from patent US20260116983A1 (University of California, published 2026).

T1: cynomolgus uPAR (recombinant) (cynomolgus monkey, UniProt Q9GK78 23-303, limits assumed)
T1 construct: also called cyno uPAR; AF647-cyno uPAR
T1 sequence (looked up): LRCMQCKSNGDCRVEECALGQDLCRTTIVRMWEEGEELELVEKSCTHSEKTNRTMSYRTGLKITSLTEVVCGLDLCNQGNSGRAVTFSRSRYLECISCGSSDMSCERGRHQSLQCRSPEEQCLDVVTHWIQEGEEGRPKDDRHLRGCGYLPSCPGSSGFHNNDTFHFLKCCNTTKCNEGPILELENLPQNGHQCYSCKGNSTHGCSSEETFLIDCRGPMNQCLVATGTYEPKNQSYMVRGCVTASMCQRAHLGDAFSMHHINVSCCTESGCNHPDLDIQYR

B1: Antibody 3159 (antibody, human IgG1, V domains shown)
VH: QVTLKESGPGILQSSLTLSLTCSLSGFSLSTSGMGVSWIRQPSGKGLEWLAHIYWDDDKRYNPSLKTRLTISKDASRDQVFLKIISVDTADTGTYYCGRRVRNYFSGTSYWYFDVWGTGTTVTVSS
VL: DVLMTQTPLSLSVSLGDQASISCRSSQNILHRTGNTYLEWYLQKPGQSPKLLIYKVSNRFSGVPDRFSGSGSGTDFTLKISRLEAEDLGVYYCFQGSYVPFTFGSGTKLEMK
notes: Chimeric: mouse VH/VL linked to Herceptin (trastuzumab) human IgG1 / kappa constant regions
B2: Antibody 3595 (antibody, human IgG1, V domains shown)
VH: EVQLRQSGPELVKPGASVKISCKASGYTFTDYYMNWVKQSHEKSLEWIGNINPNNGGTDYNQKFKGKATLTVDKSSSTAYMELRSLTSEDSAVYYCARSYGSRFPYWGLGTLVTVSA
VL: DIQMTQTTSSLSASLGDRVTISCRASQDITNYLSWYQQKPDGTVKLLIFYTSFLQSGVPLRFSGSGSGADYSLTISNLEQEDFATYFCQQGHTLPWTFGGGTKLEIK
notes: as for B1
B3: Antibody 11857 (antibody, human IgG1, V domains shown)
VH: EVQLRQSGPELVKPGASVKISCKASGYTFTDYYMNWVKQSHEKSLEWIGNINPNNGGTDYNQKFKGKATLTVDKSSSTAYMELRSLTSEDSAVYYCARSYGSRFPYWGLGTLVTVSA
VL: DIQMTQTTSSLSASLGDRVTISCRASQDITNYLSWYQQKPDGTVKLLIFYTAVLQSGFPLRFSGSGSGADYSLTISNLEQEDFATYFCQQGHTLPWTFGGGTKLEIK
B4: Antibody 8163 (antibody, human IgG1, V domains shown)
VH: EVQLVESGGGLVQPGESLTLSCDSNEFDFPSHDMSWVRKTPEKRLELVAAIDSDGGLTYYSNSRERRFIISRDNTKNTLYLQMRSLRSEDTALYYCARRRASYWYFDVWGTGTTVTVSS
VL: DILLTQSPAILPVSPGERVSFSCRASQNIGTSIHWYQQRTNGSPRLLIKYASESISGIPSRFSGSGSGTDFTLSINGVESEDIGDYYCQQSNSWPTFGGGTKLEIK
notes: as for B1
B5: 3159 HC3 + LC1 (humanized) (antibody, V domains shown)
VH: QITLKESGPTLVKPTQTLTLTCTLSGFSLSTSGMGVSWIRQPPGKALEWLAHIYWDDDKRYNPSLKSRLTITKDASKDQVVLTMTNMDTVDTATYYCGRRVRNYFSGTSYWYFDVWGTGTLVTVSS
VL: DIVMTQTPLSLSVTPGQPASISCKSSQNILHRTGNTYLEWYLQKPGQPPQLLIYKVSNRFSGVPDRFSGSGSGTDFTLKISRVEAEDVGVYYCFQGSYVPFTFGQGTKLEIK
notes: detected with anti-human Fc antibody
B6: 3159 HC3 + LC2 (humanized) (antibody, V domains shown)
VH: QITLKESGPTLVKPTQTLTLTCTLSGFSLSTSGMGVSWIRQPPGKALEWLAHIYWDDDKRYNPSLKSRLTITKDASKDQVVLTMTNMDTVDTATYYCGRRVRNYFSGTSYWYFDVWGTGTLVTVSS
VL: DVVMTQSPLSLPVTLGQPASISCRSSQNILHRTGNTYLEWFQQRPGQSPRLLIYKVSNRFSGVPDRFSGSGSGTDFTLKISRVEAEDVGVYYCFQGSYVPFTFGQGTKLEIK
notes: as for B5

Experiments:
[1] = molecular target: T2, human uPAR displayed on the surface of MDA-MB-231 cells (human, UniProt Q03405 23-305); test: flow cytometry on MDA-MB-231 cells
T2 construct: whole, on cells; also called cell-surface uPAR; cellular uPAR

[2] = molecular target: T3, human uPAR (recombinant protein used in ELISA and BLI) (human, UniProt Q03405 23-305, limits assumed); test: ELISA, plate-coated human uPAR
T3 construct: Whole entry named; also called biotinylated human uPAR
Method: (§1) To ensure the cross-reactivity of the 12 lead candidates was maintained with the Herceptin constant region, their binding to human and cyno uPAR was evaluated by ELISA (FIG. 3A).
(§2) Nunc MaxiSorp™ flat-bottom 96-well plates were coated with human or cyno uPAR (3.19 μg/mL) at 4° C. overnight, and plates were washed with wash buffer and blocked with 5% non-fat dry milk. A standard log serial dilution of each antibody candidate was added to the uPAR-coated plates and incubated at 4° C. overnight. Plates were washed three times and incubated with 50 μL of HRP-conjugated goat anti-human (H+L) antibody (Biorad). After a two-hr incubation, plates were washed, and 100 μL of 1-Step™ Turbo TMB-ELISA Substrate Solution (Thermo Scientific) was added to each well. The reaction was quenched with 2M H₂SO₄ for 5 min at room temperature, and the optical density of each well was measured at 450 nm using a SpectraMax190 microplate reader.

[3] = molecular target: T3, human uPAR (recombinant protein used in …); test: BLI (Octet HTX)
Method: (§3) Kinetic constant ranges for Octet HTX were between 1 mM to 10 pM.

[4] = molecular target: T1, cynomolgus uPAR (recombinant); test: BLI (Octet HTX)
Method: as §3

[5] = molecular target: T1, cynomolgus uPAR (recombinant); test: ELISA, plate-coated cyno uPAR
Method: as §1, §2

[6] = molecular target: T2, human uPAR displayed on the surface of …; test: flow cytometry (FACS) on MDA-MB-231 cells
Excerpt: Antibodies generated by immunizing animals with suPAR, which lacks the cell surface anchoring motif, can target protein regions that are not accessible for membrane-bound uPAR. […] Thus, FACS was applied to evaluate the cell-surface uPAR recognition by each antibody candidate under different concentrations of MDA-MB-231 cells, a triple-negative breast cancer cell line with high uPAR expression (FIG. 2).
MDA-MB-231 cells were harvested with TrypleE and resuspended in FACS buffer (PBS+1% BSA) to 2×10⁶ cells/mL before being aliquoted to a 96-well plate (100 μL, 2×10⁵ cells/well). Cells were pelleted by centrifuging the microplate for 5 min at 400 RCF and resuspended in PBS containing serially diluted antibodies to a maximum concentration of 600 nM, followed by a 50 min incubation at 4° C. Cells were then washed three times with PBS and incubated with an AlexaFluor488-conjugated goat anti-human IgG for 50 min at 4° C. in the dark. Finally, cells were washed twice with FACS buffer and resuspended in 80 μL for FACS analysis in a Bio-rad S3e Cell Sorter.

[7] = molecular target: T2, human uPAR displayed on the surface of …; test: cell-based or functional assay
[8] = molecular target: T2, human uPAR displayed on the surface of …; test: flow cytometry on MDA-MB-231 cells; repeated row of the table
[9] = molecular target: T3, human uPAR (recombinant protein used in …); test: BLI (Octet HTX); repeated row of the table
Method: as §3

[10] = molecular target: T1, cynomolgus uPAR (recombinant); test: BLI (Octet HTX); repeated row of the table
Method: as §3

[11] = molecular target: T2, human uPAR displayed on the surface of …; test: cell-based or functional assay; remark: listed apart in the source

T2 sequence (Q03405 23-305): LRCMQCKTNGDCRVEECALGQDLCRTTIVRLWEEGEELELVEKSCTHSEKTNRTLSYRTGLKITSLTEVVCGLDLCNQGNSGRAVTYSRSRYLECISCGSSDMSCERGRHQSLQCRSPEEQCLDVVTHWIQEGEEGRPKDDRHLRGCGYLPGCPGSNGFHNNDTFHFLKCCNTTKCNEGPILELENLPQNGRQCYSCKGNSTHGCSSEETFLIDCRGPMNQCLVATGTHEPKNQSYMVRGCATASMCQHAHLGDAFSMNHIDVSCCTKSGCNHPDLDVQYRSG
T3 sequence (Q03405 23-305 limits assumed): as the sequence (Q03405 23-305) above

Row | Binder | EC50 [1] [µg/mL] | EC50 [2] [nM] | Kd [3] [nM] | Kd [4] [nM] | EC50 [5] [nM] | Cellular recognition Max % [6] [%] | EC50 [6] [nM] | ADC Cytotoxicity EC50 [7] [nM] | ADC Cytotoxicity Max % [7] [%] | ADCC NK-92 EC50 [7] [nM] | ADCC NK-92 Max % [7] [%] | ADCC PBMCs EC50 [7] [nM] | ADCC PBMCs Max % [7] [%] | Adhesion blocking EC50 [7] [nM] | EC50 [8] [µg/mL] | Kd [9] [nM] | Kd [10] [nM] | ADCC PBMCs EC50, fold lower than 2G10 [11] [fold]
1 | B1 | 0.188 | 0.53 | < 0.01 | 934 | 0.27 | 1830 | 0.916 | 0.75 | 32 | 0.887 | 28.2 | 0.11 | 47.4 | 1610 |  |  |  | 
2 | B2 |  | 0.05 |  |  | 0.1 | 2280 | 0.453 | 0.66 | 34.8 | 0.2 | 21.9 | 0.1 | 55.6 | > 10000 |  |  |  | 
3 | B3 | 0.545 | 0.52 | 6.37 | 8.48 | 0.18 | 1940 | 2.07 | 0.76 | 35.2 | 5.59 | 27.2 | 0.35 | 52 | 940 | 0.545 | 6.37 | 8.48 | 
4 | B4 |  | 0.41 |  |  | 0.15 | 2330 | 0.69 | 0.57 | 28.7 | 1.14 | 18.8 | 0.09 | 57.5 | 5400 |  |  |  | 10 to 96
5 | B5 | 0.488 |  | < 0.01 | 202 |  |  |  |  |  |  |  |  |  |  |  |  |  | 
6 | B6 | 0.214 |  | 4.66 | 2240 |  |  |  |  |  |  |  |  |  |  |  |  |  | 
